Data taken from the supplement of paper PMC9112550, “Optimization of the antimicrobial peptide Bac7 by deep mutational scanning” (BMC Biology, 2022).

Tested on: Escherichia coli TOP10
Experiment: shrunken log2 fold change of peptide-encoding DNA abundance (4.5 h post-induction vs induction); higher = less antimicrobial activity (less host growth inhibition)
Settings: time post-induction: 4.5 h; library: site-saturation at positions 5, 18, 19, 20
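Note: peptides expressed intracellularly from a pBAD plasmid library in pooled LB shake-flask culture, induced with 0.3% L-arabinose, DNA abundance read by NGS, three biological replicates, DESeq2 with apeglm shrinkage.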

| Sequence | shrunken log2 fold change |
| --- | --- |
| RRIRCRPPRLPRPRPRPHSEPRP | -0.319 |
| RRIRMRPPRLPRPRPRPSEDPRP | 0.974 |
| RRIRQRPPRLPRPRPRPAFSPRP | 0.12 |
| RRIRYRPPRLPRPRPRPYAAPRP | -0.546 |
| RRIRPRPPRLPRPRPRPDNYPRP | -0.496 |
| RRIRSRPPRLPRPRPRPLDFPRP | -0.223 |
| RRIRNRPPRLPRPRPRPITCPRP | -0.166 |
| RRIRPRPPRLPRPRPRPHENPRP | -0.0875 |
| RRIRSRPPRLPRPRPRPSMHPRP | 0.402 |
| RRIRPRPPRLPRPRPRPWAKPRP | -0.0178 |
| RRIRNRPPRLPRPRPRPHIYPRP | -0.0215 |
| RRIRKRPPRLPRPRPRPVFKPRP | 0.288 |
| RRIRRRPPRLPRPRPRPHDWPRP | 0.312 |
| RRIRGRPPRLPRPRPRPKVVPRP | 0.12 |
| RRIRCRPPRLPRPRPRPGAVPRP | 0.202 |
| RRIRGRPPRLPRPRPRPWNCPRP | -0.101 |
| RRIRTRPPRLPRPRPRPAANPRP | 0.0922 |
| RRIRTRPPRLPRPRPRPQGKPRP | -0.108 |
| RRIRCRPPRLPRPRPRPFFNPRP | -0.687 |
| RRIRSRPPRLPRPRPRPVICPRP | -0.0365 |
| RRIRVRPPRLPRPRPRPSLQPRP | -0.0631 |
| RRIRGRPPRLPRPRPRPSQQPRP | -0.147 |
| RRIRMRPPRLPRPRPRPAAKPRP | 1.26 |
| RRIRDRPPRLPRPRPRPRTYPRP | -0.126 |
| RRIRNRPPRLPRPRPRPPYYPRP | -0.575 |

| Sequence | shrunken log2 fold change |
| --- | --- |
| RRIRLRPPRLPRPRPRPIECPRP | 0.0614 |
| RRIRGRPPRLPRPRPRPPVEPRP | 0.608 |
| RRIRMRPPRLPRPRPRPDQCPRP | 0.0192 |
| RRIRHRPPRLPRPRPRPVDLPRP | -0.314 |
| RRIRQRPPRLPRPRPRPGYSPRP | -0.00603 |
| RRIRGRPPRLPRPRPRPKKVPRP | 0.942 |
| RRIRRRPPRLPRPRPRPKCHPRP | 0.0704 |
| RRIRQRPPRLPRPRPRPPSKPRP | 0.353 |
| RRIRCRPPRLPRPRPRPMNSPRP | -0.141 |
| RRIRTRPPRLPRPRPRPIIMPRP | -0.305 |
| RRIRHRPPRLPRPRPRPKCAPRP | -0.0408 |
| RRIRKRPPRLPRPRPRPERMPRP | 0.0818 |
| RRIRDRPPRLPRPRPRPTEWPRP | 0.531 |
| RRIRMRPPRLPRPRPRPPYYPRP | -0.243 |
| RRIRVRPPRLPRPRPRPTISPRP | -0.12 |
| RRIRFRPPRLPRPRPRPKIQPRP | -0.179 |
| RRIRRRPPRLPRPRPRPHWAPRP | -0.17 |
| RRIRWRPPRLPRPRPRPTWVPRP | 0.688 |
| RRIRSRPPRLPRPRPRPHPSPRP | 0.0251 |
| RRIRPRPPRLPRPRPRPEAEPRP | 0.979 |
| RRIRYRPPRLPRPRPRPVWRPRP | 0.119 |
| RRIRSRPPRLPRPRPRPCFWPRP | 0.294 |
| RRIRCRPPRLPRPRPRPRKRPRP | 0.456 |
| RRIRIRPPRLPRPRPRPCRFPRP | -0.0104 |
| RRIRYRPPRLPRPRPRPSWDPRP | -0.429 |

| Sequence | shrunken log2 fold change |
| --- | --- |
| RRIRERPPRLPRPRPRPAYSPRP | -0.0646 |
| RRIRARPPRLPRPRPRPQGKPRP | 0.128 |
| RRIRSRPPRLPRPRPRPKSEPRP | 0.0504 |
| RRIRERPPRLPRPRPRPKQMPRP | -0.19 |
| RRIRTRPPRLPRPRPRPGGIPRP | 0.0232 |
| RRIRLRPPRLPRPRPRPAYKPRP | -0.00989 |
| RRIRQRPPRLPRPRPRPFKAPRP | -0.059 |
| RRIRDRPPRLPRPRPRPAQKPRP | 0.0225 |
| RRIRSRPPRLPRPRPRPPWFPRP | 0.238 |
| RRIRERPPRLPRPRPRPHRIPRP | -0.229 |
| RRIRERPPRLPRPRPRPGITPRP | -0.648 |
| RRIRQRPPRLPRPRPRPAQEPRP | 0.852 |
| RRIRMRPPRLPRPRPRPNLQPRP | -0.0416 |
| RRIRRRPPRLPRPRPRPRPKPRP | 1.05 |
| RRIRARPPRLPRPRPRPREKPRP | 0.383 |
| RRIRLRPPRLPRPRPRPCVDPRP | 0.0214 |
| RRIRMRPPRLPRPRPRPFIAPRP | -0.251 |
| RRIRQRPPRLPRPRPRPVKWPRP | 0.746 |
| RRIRERPPRLPRPRPRPWKKPRP | -0.0959 |
| RRIRRRPPRLPRPRPRPGADPRP | 0.725 |
| RRIRCRPPRLPRPRPRPRWPPRP | 0.661 |
| RRIRGRPPRLPRPRPRPCHAPRP | 0.274 |
| RRIRTRPPRLPRPRPRPCICPRP | -0.119 |
| RRIRRRPPRLPRPRPRPTVMPRP | 0.286 |
| RRIRARPPRLPRPRPRPHRQPRP | 0.29 |

| Sequence | shrunken log2 fold change |
| --- | --- |
| RRIRVRPPRLPRPRPRPEGCPRP | 0.132 |
| RRIRARPPRLPRPRPRPSVRPRP | -0.0488 |
| RRIRCRPPRLPRPRPRPYCNPRP | -1.19 |
| RRIRLRPPRLPRPRPRPWSGPRP | -0.000803 |
| RRIRKRPPRLPRPRPRPLTNPRP | -0.0294 |
| RRIRHRPPRLPRPRPRPEGIPRP | 0.0992 |
| RRIRERPPRLPRPRPRPDEFPRP | 0.0332 |
| RRIRCRPPRLPRPRPRPDLFPRP | 0.162 |
| RRIRYRPPRLPRPRPRPKFFPRP | 0.131 |
| RRIRHRPPRLPRPRPRPSGWPRP | -0.291 |
| RRIRQRPPRLPRPRPRPYIWPRP | -0.0658 |
| RRIRTRPPRLPRPRPRPVRFPRP | 0.0687 |
| RRIRWRPPRLPRPRPRPQGQPRP | 0.203 |
| RRIRKRPPRLPRPRPRPVWDPRP | 2.04 |
| RRIRERPPRLPRPRPRPGNEPRP | -0.0966 |
| RRIRLRPPRLPRPRPRPSPYPRP | -0.674 |
| RRIRARPPRLPRPRPRPVMDPRP | 0.671 |
| RRIRTRPPRLPRPRPRPQWKPRP | 0.0581 |
| RRIRKRPPRLPRPRPRPHAKPRP | 0.226 |
| RRIRLRPPRLPRPRPRPKWEPRP | -0.00197 |
| RRIRARPPRLPRPRPRPKPRPRP | 1.9 |
| RRIRFRPPRLPRPRPRPPSNPRP | 0.324 |
| RRIRIRPPRLPRPRPRPYMNPRP | -0.712 |
| RRIRGRPPRLPRPRPRPIGPPRP | 0.5 |
| RRIRQRPPRLPRPRPRPQYLPRP | -0.131 |

| Sequence | shrunken log2 fold change |
| --- | --- |
| RRIRKRPPRLPRPRPRPMRSPRP | 0.638 |
| RRIRRRPPRLPRPRPRPDWRPRP | 0.36 |
| RRIRGRPPRLPRPRPRPEYDPRP | 0.0795 |
| RRIRMRPPRLPRPRPRPNVWPRP | 0.303 |
| RRIRERPPRLPRPRPRPRQVPRP | -0.0483 |
| RRIRKRPPRLPRPRPRPYCWPRP | -0.315 |
| RRIRCRPPRLPRPRPRPPDDPRP | 0.523 |
| RRIRYRPPRLPRPRPRPPTLPRP | -0.274 |
| RRIRIRPPRLPRPRPRPTCTPRP | -0.807 |
| RRIRMRPPRLPRPRPRPWPHPRP | 0.512 |
| RRIRFRPPRLPRPRPRPEEHPRP | -0.0677 |
| RRIRERPPRLPRPRPRPTYWPRP | -0.219 |
| RRIRMRPPRLPRPRPRPNWRPRP | 0.0183 |
| RRIRDRPPRLPRPRPRPSLAPRP | 0.474 |
| RRIRRRPPRLPRPRPRPDNVPRP | -0.211 |
| RRIRSRPPRLPRPRPRPTCMPRP | 0.0286 |
| RRIRDRPPRLPRPRPRPCKCPRP | -0.147 |
| RRIRERPPRLPRPRPRPRDSPRP | 0.0154 |
| RRIRYRPPRLPRPRPRPNFKPRP | 0.633 |
| RRIRHRPPRLPRPRPRPGWRPRP | 0.232 |
| RRIRERPPRLPRPRPRPRANPRP | -0.158 |
| RRIRDRPPRLPRPRPRPTHFPRP | -0.0613 |
| RRIRVRPPRLPRPRPRPIGIPRP | -0.415 |
| RRIRCRPPRLPRPRPRPHHQPRP | -0.278 |
| RRIRCRPPRLPRPRPRPDLSPRP | 0.0851 |
